In data set [1] the target is T1, Soybean Kunitz Trypsin Inhibitor (UniProt P01070).
T1 sequence: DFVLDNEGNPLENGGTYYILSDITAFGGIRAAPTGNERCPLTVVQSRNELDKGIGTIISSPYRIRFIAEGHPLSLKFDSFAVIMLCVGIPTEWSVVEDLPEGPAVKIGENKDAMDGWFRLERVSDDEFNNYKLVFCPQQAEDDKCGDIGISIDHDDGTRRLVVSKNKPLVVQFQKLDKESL

Data set [2] has as its target T2, soybean Bowman-Birk Inhibitor (UniProt P01055).
T2 sequence: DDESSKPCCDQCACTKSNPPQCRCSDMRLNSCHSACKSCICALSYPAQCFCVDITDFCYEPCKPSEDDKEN

The target in another data set is soybean agglutinin (SBA) (UniProt P05046).

In patent US20040161448 one finds % of anti-nutritional factor degraded data, which are given here for one substance.

Sequence of soybean agglutinin (SBA) (P05046 33-285): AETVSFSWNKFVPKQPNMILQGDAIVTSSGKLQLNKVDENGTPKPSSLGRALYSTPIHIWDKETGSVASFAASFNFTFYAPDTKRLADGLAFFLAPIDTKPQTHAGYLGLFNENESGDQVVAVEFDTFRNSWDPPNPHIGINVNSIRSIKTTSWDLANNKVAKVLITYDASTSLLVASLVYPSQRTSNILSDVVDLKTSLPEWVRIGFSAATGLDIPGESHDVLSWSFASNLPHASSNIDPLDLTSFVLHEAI

On to “protease derived from Bacillus sp. NCIMB 40484”, for which the results for the % of anti-nutritional factor degraded (in data set [1]; in data set [2]; with soybean agglutinin (SBA)) were 100%, 41% and 21%, respectively.
